Laboratory results taken from paper PMC9482650, “Quantitative fragmentomics allow affinity mapping of interactomes” (Nature Communications, 2022).

T1: APBA2_1, Q99767
T1 sequence (Q99767 563-664, limits assumed, looked up): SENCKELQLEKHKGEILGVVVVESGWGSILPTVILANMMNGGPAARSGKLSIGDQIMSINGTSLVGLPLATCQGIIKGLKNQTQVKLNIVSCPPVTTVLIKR

T2: APBA3_1, O96018
T2 sequence (O96018 389-490, limits assumed, looked up): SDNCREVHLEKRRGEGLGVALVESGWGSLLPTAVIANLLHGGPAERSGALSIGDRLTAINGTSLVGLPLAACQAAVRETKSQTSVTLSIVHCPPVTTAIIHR

T3: DFNB31_2, Q9P202
T3 sequence (Q9P202 274-371, limits assumed, looked up): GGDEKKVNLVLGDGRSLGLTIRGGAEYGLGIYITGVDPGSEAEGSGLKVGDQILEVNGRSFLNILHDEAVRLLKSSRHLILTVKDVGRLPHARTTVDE

T4: GRIP1_7, Q9Y3R0
T4 sequence (Q9Y3R0 999-1096, limits assumed, looked up): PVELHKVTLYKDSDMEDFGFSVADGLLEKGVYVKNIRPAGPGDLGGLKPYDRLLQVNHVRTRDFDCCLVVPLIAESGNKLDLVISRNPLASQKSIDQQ

T5: LRRC7, Q96NW7
T5 sequence (Q96NW7 1440-1537, limits assumed, looked up): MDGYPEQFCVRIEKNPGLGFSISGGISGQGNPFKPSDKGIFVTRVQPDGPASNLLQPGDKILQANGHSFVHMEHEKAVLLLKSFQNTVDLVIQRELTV

T6: MPDZ_10, O75970
T6 sequence (O75970 1624-1722, limits assumed, looked up): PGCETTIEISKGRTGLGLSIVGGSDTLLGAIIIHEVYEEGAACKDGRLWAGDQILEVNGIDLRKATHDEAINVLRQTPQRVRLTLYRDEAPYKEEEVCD

T7: MPDZ_12, O75970
T7 sequence (O75970 1857-1958, limits assumed, looked up): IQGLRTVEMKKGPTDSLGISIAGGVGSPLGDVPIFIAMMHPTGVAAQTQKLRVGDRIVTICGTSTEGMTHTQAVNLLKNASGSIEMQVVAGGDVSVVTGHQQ

T8: NHERF3_1, Q5T2W1
T8 sequence (Q5T2W1 4-100, limits assumed, looked up): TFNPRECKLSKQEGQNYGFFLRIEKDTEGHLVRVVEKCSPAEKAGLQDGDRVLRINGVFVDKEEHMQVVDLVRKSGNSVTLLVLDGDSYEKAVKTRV

T9: PTPN13_1, Q12923
T9 sequence (Q12923 1088-1188, limits assumed, looked up): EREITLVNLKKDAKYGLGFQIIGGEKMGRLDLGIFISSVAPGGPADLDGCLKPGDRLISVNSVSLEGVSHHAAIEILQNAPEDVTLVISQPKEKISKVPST

T10: RHPN1, Q8TCX5
T10 sequence (Q8TCX5 508-602, limits assumed, looked up): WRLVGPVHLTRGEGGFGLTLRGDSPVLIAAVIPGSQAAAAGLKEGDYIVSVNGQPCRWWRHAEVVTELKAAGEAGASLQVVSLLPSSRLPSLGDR

T11: SNTA1, Q13424
T11 sequence (Q13424 82-180, limits assumed, looked up): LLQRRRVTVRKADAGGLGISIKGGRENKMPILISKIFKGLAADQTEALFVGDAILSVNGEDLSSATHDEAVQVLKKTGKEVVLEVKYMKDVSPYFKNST

T12: SYNJ2BP, P57105
T12 sequence (P57105 8-110, limits assumed, looked up): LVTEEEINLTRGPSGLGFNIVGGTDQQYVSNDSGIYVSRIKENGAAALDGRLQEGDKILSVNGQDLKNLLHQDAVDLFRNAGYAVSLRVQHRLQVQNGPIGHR

T13: TJP3_3, O95049
T13 sequence (O95049 375-456, limits assumed, looked up): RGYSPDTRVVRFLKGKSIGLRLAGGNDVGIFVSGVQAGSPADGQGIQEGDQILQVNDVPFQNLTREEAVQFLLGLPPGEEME


What follows are binders tested against T1, APBA2_1, Q99767 (assay: holdup assay). Details: plain residues with an end cap or a label only (N-terminal biotin on a linker: ado-ado).
Design: key: below the threshold = too weak to quantify, mostly under pKd 3.1 to 4

Row | Binder | pKd
1 | DFLSTFHIRI [CIB2, O75838] | below the threshold
2 | NVYGIESVKI [GRIA2, P42262] | below the threshold

These binders were tested against T2, APBA3_1, O96018 (assay: holdup assay). Details: plain residues with an end cap or a label only (N-terminal biotin on a linker: ado-ado).
Design: key: below the threshold = too weak to quantify, mostly under pKd 3.1 to 4

Row | Binder | pKd
3 | DFLSTFHIRI [CIB2, O75838] | below the threshold
4 | NVYGIESVKI [GRIA2, P42262] | below the threshold

The binders below were run against CASK, O14936 (assay: holdup assay). Details: plain residues with an end cap or a label only (N-terminal biotin on a linker: ado-ado).
CASK, O14936, sequence (O14936 487-570): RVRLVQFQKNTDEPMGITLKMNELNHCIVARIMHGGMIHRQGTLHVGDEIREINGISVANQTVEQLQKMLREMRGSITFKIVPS
Design: key: below the threshold = too weak to quantify, mostly under pKd 3.1 to 4

Row | Binder | pKd
5 | DFLSTFHIRI [CIB2, O75838] | below the threshold
6 | NVYGIESVKI [GRIA2, P42262] | below the threshold

These binders were tested against T3, DFNB31_2, Q9P202 (assay: holdup assay). Details: plain residues with an end cap or a label only (N-terminal biotin on a linker: ado-ado).
Design: key: below the threshold = too weak to quantify, mostly under pKd 3.1 to 4

Row | Binder | pKd
7 | DFLSTFHIRI [CIB2, O75838] | below the threshold
8 | NVYGIESVKI [GRIA2, P42262] | below the threshold

What follows are binders tested against DLG1_1, Q12959 (assay: holdup assay). Details: plain residues with an end cap or a label only (N-terminal biotin on a linker: ado-ado).
Design: key: below the threshold = too weak to quantify, mostly under pKd 3.1 to 4

Row | Binder | pKd
9 | DFLSTFHIRI [CIB2, O75838] | below the threshold
10 | NVYGIESVKI [GRIA2, P42262] | below the threshold

These binders were tested against DLG1_2, Q12959 (assay: holdup assay). Details: plain residues with an end cap or a label only (N-terminal biotin on a linker: ado-ado).
Design: key: below the threshold = too weak to quantify, mostly under pKd 3.1 to 4

Row | Binder | pKd
11 | DFLSTFHIRI [CIB2, O75838] | below the threshold
12 | NVYGIESVKI [GRIA2, P42262] | 3.96

The binders below were run against DLG1_3, Q12959 (assay: holdup assay). Details: plain residues with an end cap or a label only (N-terminal biotin on a linker: ado-ado).
Design: key: below the threshold = too weak to quantify, mostly under pKd 3.1 to 4

Row | Binder | pKd
13 | DFLSTFHIRI [CIB2, O75838] | below the threshold
14 | NVYGIESVKI [GRIA2, P42262] | 3.93

These binders were tested against T4, GRIP1_7, Q9Y3R0 (assay: holdup assay). Details: plain residues with an end cap or a label only (N-terminal biotin on a linker: ado-ado).
Design: key: below the threshold = too weak to quantify, mostly under pKd 3.1 to 4

Row | Binder | pKd
15 | DFLSTFHIRI [CIB2, O75838] | below the threshold
16 | NVYGIESVKI [GRIA2, P42262] | below the threshold

Each binder was assayed against GRIP2_7, Q9C0E4 (assay: holdup assay). Details: plain residues with an end cap or a label only (N-terminal biotin on a linker: ado-ado).
GRIP2_7, Q9C0E4, sequence (Q9C0E4 934-1023): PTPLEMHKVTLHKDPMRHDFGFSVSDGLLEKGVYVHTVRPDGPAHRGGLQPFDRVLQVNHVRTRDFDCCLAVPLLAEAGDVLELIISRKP
Design: key: below the threshold = too weak to quantify, mostly under pKd 3.1 to 4

Row | Binder | pKd
17 | DFLSTFHIRI [CIB2, O75838] | 4.04
18 | NVYGIESVKI [GRIA2, P42262] | below the threshold

Each binder was assayed against Inadl_5, Q8NI35 (assay: holdup assay). Details: plain residues with an end cap or a label only (N-terminal biotin on a linker: ado-ado).
Inadl_5, Q8NI35, sequence (Q8NI35 673-780): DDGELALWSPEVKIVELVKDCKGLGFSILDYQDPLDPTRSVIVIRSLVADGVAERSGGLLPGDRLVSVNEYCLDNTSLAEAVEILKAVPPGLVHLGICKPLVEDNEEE
Design: key: below the threshold = too weak to quantify, mostly under pKd 3.1 to 4

Row | Binder | pKd
19 | DFLSTFHIRI [CIB2, O75838] | below the threshold
20 | NVYGIESVKI [GRIA2, P42262] | below the threshold

Each binder was assayed against LNX1_3, Q8TBB1 (assay: holdup assay). Details: plain residues with an end cap or a label only (N-terminal biotin on a linker: ado-ado).
LNX1_3, Q8TBB1, sequence (Q8TBB1 500-596): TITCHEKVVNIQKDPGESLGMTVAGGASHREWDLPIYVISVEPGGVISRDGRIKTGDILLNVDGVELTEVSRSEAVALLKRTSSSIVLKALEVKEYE
Design: key: below the threshold = too weak to quantify, mostly under pKd 3.1 to 4

Row | Binder | pKd
21 | DFLSTFHIRI [CIB2, O75838] | 4.28
22 | NVYGIESVKI [GRIA2, P42262] | below the threshold

The binders below were run against T5, LRRC7, Q96NW7 (assay: holdup assay). Details: plain residues with an end cap or a label only (N-terminal biotin on a linker: ado-ado).
Design: key: below the threshold = too weak to quantify, mostly under pKd 3.1 to 4

Row | Binder | pKd
23 | DFLSTFHIRI [CIB2, O75838] | below the threshold
24 | NVYGIESVKI [GRIA2, P42262] | 3.49

The binders below were run against MAGI1_2, Q96QZ7 (assay: holdup assay). Details: plain residues with an end cap or a label only (N-terminal biotin on a linker: ado-ado).
MAGI1_2, Q96QZ7, sequence (Q96QZ7 456-580): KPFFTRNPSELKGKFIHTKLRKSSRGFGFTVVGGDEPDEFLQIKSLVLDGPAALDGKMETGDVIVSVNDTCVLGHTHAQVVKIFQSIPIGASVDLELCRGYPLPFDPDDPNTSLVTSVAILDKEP
Design: key: below the threshold = too weak to quantify, mostly under pKd 3.1 to 4

Row | Binder | pKd
25 | DFLSTFHIRI [CIB2, O75838] | below the threshold
26 | NVYGIESVKI [GRIA2, P42262] | below the threshold

The binders below were run against MAGI2_2, Q86UL8 (assay: holdup assay). Details: plain residues with an end cap or a label only (N-terminal biotin on a linker: ado-ado).
MAGI2_2, Q86UL8, sequence (Q86UL8 410-522): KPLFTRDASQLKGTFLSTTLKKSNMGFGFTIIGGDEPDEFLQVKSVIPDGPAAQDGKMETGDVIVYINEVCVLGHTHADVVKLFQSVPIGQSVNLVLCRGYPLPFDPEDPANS
Design: key: below the threshold = too weak to quantify, mostly under pKd 3.1 to 4

Row | Binder | pKd
27 | DFLSTFHIRI [CIB2, O75838] | below the threshold
28 | NVYGIESVKI [GRIA2, P42262] | below the threshold

Each binder was assayed against MAGI2_4, Q86UL8 (assay: holdup assay). Details: plain residues with an end cap or a label only (N-terminal biotin on a linker: ado-ado).
MAGI2_4, Q86UL8, sequence (Q86UL8 772-865): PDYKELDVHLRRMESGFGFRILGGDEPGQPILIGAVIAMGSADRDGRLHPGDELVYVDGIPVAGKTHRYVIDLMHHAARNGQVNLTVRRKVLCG
Design: key: below the threshold = too weak to quantify, mostly under pKd 3.1 to 4

Row | Binder | pKd
29 | DFLSTFHIRI [CIB2, O75838] | below the threshold
30 | NVYGIESVKI [GRIA2, P42262] | below the threshold

What follows are binders tested against T6, MPDZ_10, O75970 (assay: holdup assay). Details: plain residues with an end cap or a label only (N-terminal biotin on a linker: ado-ado).
Design: key: below the threshold = too weak to quantify, mostly under pKd 3.1 to 4

Row | Binder | pKd
31 | DFLSTFHIRI [CIB2, O75838] | below the threshold
32 | NVYGIESVKI [GRIA2, P42262] | 3.57

These binders were tested against T7, MPDZ_12, O75970 (assay: holdup assay). Details: plain residues with an end cap or a label only (N-terminal biotin on a linker: ado-ado).
Design: key: below the threshold = too weak to quantify, mostly under pKd 3.1 to 4

Row | Binder | pKd
33 | DFLSTFHIRI [CIB2, O75838] | below the threshold
34 | NVYGIESVKI [GRIA2, P42262] | 3.61

The binders below were run against T8, NHERF3_1, Q5T2W1 (assay: holdup assay). Details: plain residues with an end cap or a label only (N-terminal biotin on a linker: ado-ado).
Design: key: below the threshold = too weak to quantify, mostly under pKd 3.1 to 4

Row | Binder | pKd
35 | DFLSTFHIRI [CIB2, O75838] | below the threshold
36 | NVYGIESVKI [GRIA2, P42262] | below the threshold

Each binder was assayed against NHERF4_4, Q86UT5 (assay: holdup assay). Details: plain residues with an end cap or a label only (N-terminal biotin on a linker: ado-ado).
NHERF4_4, Q86UT5, sequence (Q86UT5 464-550): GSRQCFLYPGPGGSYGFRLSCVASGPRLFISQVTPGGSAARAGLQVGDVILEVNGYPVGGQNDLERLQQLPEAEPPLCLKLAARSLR
Design: key: below the threshold = too weak to quantify, mostly under pKd 3.1 to 4

Row | Binder | pKd
37 | DFLSTFHIRI [CIB2, O75838] | 4.58
38 | NVYGIESVKI [GRIA2, P42262] | below the threshold

What follows are binders tested against PDZRN4_1, Q6ZMN7 (assay: holdup assay). Details: plain residues with an end cap or a label only (N-terminal biotin on a linker: ado-ado).
PDZRN4_1, Q6ZMN7, sequence (Q6ZMN7 213-318): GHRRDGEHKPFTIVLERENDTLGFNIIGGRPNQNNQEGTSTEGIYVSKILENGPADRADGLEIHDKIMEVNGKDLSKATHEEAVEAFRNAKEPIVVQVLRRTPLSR
Design: key: below the threshold = too weak to quantify, mostly under pKd 3.1 to 4

Row | Binder | pKd
39 | DFLSTFHIRI [CIB2, O75838] | below the threshold
40 | NVYGIESVKI [GRIA2, P42262] | below the threshold

Each binder was assayed against T9, PTPN13_1, Q12923 (assay: holdup assay). Details: plain residues with an end cap or a label only (N-terminal biotin on a linker: ado-ado).
Design: key: below the threshold = too weak to quantify, mostly under pKd 3.1 to 4

Row | Binder | pKd
41 | DFLSTFHIRI [CIB2, O75838] | below the threshold
42 | NVYGIESVKI [GRIA2, P42262] | below the threshold

Each binder was assayed against T10, RHPN1, Q8TCX5 (assay: holdup assay). Details: plain residues with an end cap or a label only (N-terminal biotin on a linker: ado-ado).
Design: key: below the threshold = too weak to quantify, mostly under pKd 3.1 to 4

Row | Binder | pKd
43 | DFLSTFHIRI [CIB2, O75838] | below the threshold
44 | NVYGIESVKI [GRIA2, P42262] | 3.81

Each binder was assayed against T11, SNTA1, Q13424 (assay: holdup assay). Details: plain residues with an end cap or a label only (N-terminal biotin on a linker: ado-ado).
Design: key: below the threshold = too weak to quantify, mostly under pKd 3.1 to 4

Row | Binder | pKd
45 | DFLSTFHIRI [CIB2, O75838] | below the threshold
46 | NVYGIESVKI [GRIA2, P42262] | below the threshold

Each binder was assayed against T12, SYNJ2BP, P57105 (assay: holdup assay). Details: plain residues with an end cap or a label only (N-terminal biotin on a linker: ado-ado).
Design: key: below the threshold = too weak to quantify, mostly under pKd 3.1 to 4

Row | Binder | pKd
47 | DFLSTFHIRI [CIB2, O75838] | below the threshold
48 | NVYGIESVKI [GRIA2, P42262] | 3.52

Each binder was assayed against T13, TJP3_3, O95049 (assay: holdup assay). Details: plain residues with an end cap or a label only (N-terminal biotin on a linker: ado-ado).
Design: key: below the threshold = too weak to quantify, mostly under pKd 3.1 to 4

Row | Binder | pKd
49 | DFLSTFHIRI [CIB2, O75838] | below the threshold
50 | NVYGIESVKI [GRIA2, P42262] | below the threshold
